Measurements: article PMC7055370, “Structure of the MICU1–MICU2 heterodimer provides insights into the gatekeeping threshold shift” (IUCrJ, 2020)

Molecular target: the molecule itself
Assay: crystal structure; apo MICU1 ΔC - MICU2 ΔC (SeMet) mixed at a 1:1 molar ratio; crystals at 20°C in 20%(w/v) PEG 3350, 0.2 M ammonium citrate tribasic pH 7.5; 3.1 Å, SAD

B1: human MICU2 ΔC helix (residues 84–401), selenomethionine derivative (domain or fragment, UniProt Q8IYU8 84-401, looked up)
chain: SLRKQRFMQFSSLEHEGEYYMTPRDFLFSVMFEQMERKTSVKKLTKKDIEDTLSGIQTAGCGSTFFRDLGDKGLISYTEYLFLLTILTKPHSGFHVAFKMLDTDGNEMIEKREFFKLQKIISKQDDLMTVKTNETGYQEAIVKEPEINTTLQMRFFGKRGQRKLHYKEFRRFMENLQTEIQEMEFLQFSKGLSFMRKEDFAEWLLFFTNTENKDIYWKNVREKLSAGESISLDEFKSFCHFTTHLEDFAIAMQMFSLAHRPVRLAEFKRAVKVATGQELSNNILDTVFKIFDLDGDECLSHEEFLGVLKNRMHRGLWV
modifications: selenomethionine (SeMet) derivative
notes: human MICU2 (mitochondrial calcium uptake protein 2), residues 84-401, without the C-terminal helix; pCold II vector with 6x His tag at the N terminus; also called mitochondrial calcium uptake protein 2; source: E. coli B834(DE3), purified (Ni-IDA, SEC); not shown: His6, N-terminal, kept
B1: binds.
